# Measurements taken from patent JP2017014112A (dated 2017).
# Experiments:
# [1] = molecular target: T1, サバイビンとカルモジュリンとの融合タンパク質 (catalogue no. SUR0801, ATGen) (Homo sapiens (Human), UniProt O15392 1-142, fluorescein-labelled when used as prey in the pull-down); experiment: SPR, Biacore X100, fusion captured through biotin-CBP on SA chip, VHH 6.25-100 nM as analyte, single cycle
# T1 construct: Bought fusion protein; Fluorescein-labelled in the pull-down; unlabelled and captured through biotin-CBP on the SA chip in the Biacore run; also called 融合タンパク質200; survivin-calmodulin fusion protein
# T1 sequence (O15392 whole entry, the tested form may be a part): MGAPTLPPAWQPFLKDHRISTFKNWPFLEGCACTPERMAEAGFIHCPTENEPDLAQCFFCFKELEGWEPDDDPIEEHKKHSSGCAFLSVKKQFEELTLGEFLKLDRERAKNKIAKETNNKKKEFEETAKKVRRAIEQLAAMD
# [2] = molecular target: T2, サバイビン (antigen of the competitive ELISA) (UniProt O15392 1-142); experiment: competitive ELISA: fixed VHH equilibrated with varied survivin, free VHH caught on antigen-coated plate, anti-His detection
# T2 construct: also called サバイビン1010; 抗原
# T2 sequence (O15392 whole entry): as the sequence (O15392 whole entry, the tested form may be a part) above
# カルモジュリン = カルモジュリン (UniProt P0DP23 2-149); experiment: pull-down with bead-bound VHH, fluorescein-labelled prey, SDS-PAGE
Kd [1] [nM],Binder,Kd [2] [nM],binding result (カルモジュリン)
25.1,"精製したVHH抗体(R7-A), C-terminal His×6, secreted from Brevibacillus (VHH, Expressed with the Brevibacillus secretion system and purified on Ni Sepharose) VHH: EVQLVESGGGSVQAGGSLRLSCAASGVSNTDMIMIWFRQAPGKEREGVLAAIYKNSTYYADSVKGRFTISQDNAKNTVYLQMNSLKPEDTAIYYCAAIRAVIGRHIRPHIYWGQGTQVTVGG",516,–
–,"R7-AのDNA断片にコードされるVHH抗体 (cell-free translated, on the nucleic acid linker) (VHH, C-terminus covalently bound to the puromycin of the nucleic acid linker (linker carries biotin and fluorescein), Made in rabbit reticulocyte lysate and held on streptavidin magnetic beads through the linker for the pull-down; also called VHH抗体タンパク質120) VHH: EVQLVESGGGSVQAGGSLRLSCAASGVSNTDMIMIWFRQAPGKEREGVLAAIYKNSTYYADSVKGRFTISQDNAKNTVYLQMNSLKPEDTAIYYCAAIRAVIGRHIRPHIYWGQGTQVTVGG",–,no binding (tested: 200 nM)
–,"R7-BのDNA断片にコードされるVHH抗体 (VHH, C-terminus covalently bound to the puromycin of the nucleic acid linker (linker carries biotin and fluorescein), Cell-free translated, on the nucleic acid linker, as bait in the pull-down) VHH: EVQLVESGGGSVQAGGSLRLSCAASGIPIQDSVVLWFRQAPGKEREGVLAAKYRSPTYYADSVKGRFTISQDNAKNTVYLQMNSLKPEDTAIYYCAAIRAVIGRHIRPHIYWGQGTQVTVGG",–,no binding (tested: 200 nM alone; 500 nM in the protein mix)
–,"R7-DのDNA断片にコードされるVHH抗体 (VHH, C-terminus covalently bound to the puromycin of the nucleic acid linker (linker carries biotin and fluorescein), Cell-free translated, on the nucleic acid linker, as bait in the pull-down) VHH: EVQLVESGGGSVQAGGSLRLSCAASGVSNTDMIMIWFRQAPGKEREGVLAAIYKNSTYYADSVKGRFTISQDNAKNTVYLQMNSLKPEDTAIYYCAAIAFNGHNHPILTIYWGQGTQVTVGG",–,no binding (tested: 500 nM in the protein mix)
–,"R7-EのDNA断片にコードされるVHH抗体 (VHH, C-terminus covalently bound to the puromycin of the nucleic acid linker (linker carries biotin and fluorescein), Cell-free translated, on the nucleic acid linker, as bait in the pull-down) VHH: EVQLVESGGGSVQAGGSLRLSCAASGVSNTDMIMIWFRQAPGKEREGVLAAIYKNSTYYADSVKGRFTISQDNAKNTVYLQMNSLKPEDTAVYYCAAISAVIGRHIRPHIYWGQGTQVTVGG",–,no binding (tested: 500 nM in the protein mix)
